Experimental data from the supplement of paper PMC6379048.

Key:
Assay in all cases: Kd (EC50 corrected by depletion factor)
[1] = biological target: T1, ERI3 (UniProt O43414)
T1 sequence: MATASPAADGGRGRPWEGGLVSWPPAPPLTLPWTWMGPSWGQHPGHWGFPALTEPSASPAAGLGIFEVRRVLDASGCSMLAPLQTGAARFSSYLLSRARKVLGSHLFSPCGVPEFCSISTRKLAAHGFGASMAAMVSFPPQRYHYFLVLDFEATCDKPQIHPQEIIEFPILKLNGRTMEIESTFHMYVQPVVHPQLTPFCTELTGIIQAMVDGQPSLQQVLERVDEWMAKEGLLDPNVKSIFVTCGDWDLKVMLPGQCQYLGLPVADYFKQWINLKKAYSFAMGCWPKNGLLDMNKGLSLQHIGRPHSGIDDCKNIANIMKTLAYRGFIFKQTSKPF
How it was run: (§1)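 Free RNA oligos (0 nM to 30 μM) were pre-incubated with HEK293-FT lysate (2.5 mg protein/well) for 1 h at 4°C, followed by 30 min at 4°C with the same 5′-amino-C6 oligos coupled to NHS-Sepharose beads. Bound proteins were quantified by label-free LC-MS/MS and normalised to the control. EC50 was derived from a four-parameter log-logistic fit, and Kd was obtained by multiplying EC50 by a protein-dependent depletion factor.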

[2] = biological target: T2, SRSF11 (UniProt Q05519)
T2 sequence: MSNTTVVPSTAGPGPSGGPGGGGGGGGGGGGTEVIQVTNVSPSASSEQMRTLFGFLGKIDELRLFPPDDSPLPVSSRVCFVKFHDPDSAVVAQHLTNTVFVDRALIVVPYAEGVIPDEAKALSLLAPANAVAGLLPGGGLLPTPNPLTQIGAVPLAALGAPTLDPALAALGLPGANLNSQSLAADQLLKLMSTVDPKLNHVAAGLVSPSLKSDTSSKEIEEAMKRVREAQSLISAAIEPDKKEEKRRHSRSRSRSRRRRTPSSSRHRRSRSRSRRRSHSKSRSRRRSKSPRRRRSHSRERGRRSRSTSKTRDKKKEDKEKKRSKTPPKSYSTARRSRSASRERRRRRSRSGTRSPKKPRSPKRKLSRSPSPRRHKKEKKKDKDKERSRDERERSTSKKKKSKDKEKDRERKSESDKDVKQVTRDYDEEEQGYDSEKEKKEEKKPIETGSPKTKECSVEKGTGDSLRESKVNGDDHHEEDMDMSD
How it was run: as §1

[3] = biological target: T3, SF3B5 (UniProt Q9BWJ5)
T3 sequence: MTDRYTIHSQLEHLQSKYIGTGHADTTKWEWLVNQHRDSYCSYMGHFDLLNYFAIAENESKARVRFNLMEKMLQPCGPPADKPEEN
How it was run: as §1

[4] = biological target: RPS10 (UniProt P46783)
How it was run: as §1

[5] = biological target: MRPL53 (UniProt Q96EL3)
How it was run: as §1

[6] = biological target: T4, MYEF2 (UniProt Q9P2K5)
T4 sequence: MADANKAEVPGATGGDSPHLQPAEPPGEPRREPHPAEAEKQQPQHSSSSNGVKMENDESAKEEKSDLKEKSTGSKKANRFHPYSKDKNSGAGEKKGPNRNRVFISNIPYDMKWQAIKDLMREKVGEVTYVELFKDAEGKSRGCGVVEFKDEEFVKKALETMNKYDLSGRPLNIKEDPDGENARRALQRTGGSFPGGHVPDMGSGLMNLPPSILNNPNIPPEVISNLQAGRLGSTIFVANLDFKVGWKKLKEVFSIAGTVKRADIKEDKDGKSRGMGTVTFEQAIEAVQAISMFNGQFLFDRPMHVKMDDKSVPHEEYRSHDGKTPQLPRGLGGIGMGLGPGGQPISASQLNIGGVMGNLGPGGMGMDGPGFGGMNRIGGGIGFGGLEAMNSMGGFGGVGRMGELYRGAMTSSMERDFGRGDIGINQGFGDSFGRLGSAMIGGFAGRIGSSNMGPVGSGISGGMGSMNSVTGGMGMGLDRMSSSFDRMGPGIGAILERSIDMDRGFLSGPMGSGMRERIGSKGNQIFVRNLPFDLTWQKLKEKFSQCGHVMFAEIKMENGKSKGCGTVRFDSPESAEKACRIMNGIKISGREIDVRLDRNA
How it was run: as §1

[7] = biological target: T5, PATL1 (UniProt Q86TB9)
T5 sequence: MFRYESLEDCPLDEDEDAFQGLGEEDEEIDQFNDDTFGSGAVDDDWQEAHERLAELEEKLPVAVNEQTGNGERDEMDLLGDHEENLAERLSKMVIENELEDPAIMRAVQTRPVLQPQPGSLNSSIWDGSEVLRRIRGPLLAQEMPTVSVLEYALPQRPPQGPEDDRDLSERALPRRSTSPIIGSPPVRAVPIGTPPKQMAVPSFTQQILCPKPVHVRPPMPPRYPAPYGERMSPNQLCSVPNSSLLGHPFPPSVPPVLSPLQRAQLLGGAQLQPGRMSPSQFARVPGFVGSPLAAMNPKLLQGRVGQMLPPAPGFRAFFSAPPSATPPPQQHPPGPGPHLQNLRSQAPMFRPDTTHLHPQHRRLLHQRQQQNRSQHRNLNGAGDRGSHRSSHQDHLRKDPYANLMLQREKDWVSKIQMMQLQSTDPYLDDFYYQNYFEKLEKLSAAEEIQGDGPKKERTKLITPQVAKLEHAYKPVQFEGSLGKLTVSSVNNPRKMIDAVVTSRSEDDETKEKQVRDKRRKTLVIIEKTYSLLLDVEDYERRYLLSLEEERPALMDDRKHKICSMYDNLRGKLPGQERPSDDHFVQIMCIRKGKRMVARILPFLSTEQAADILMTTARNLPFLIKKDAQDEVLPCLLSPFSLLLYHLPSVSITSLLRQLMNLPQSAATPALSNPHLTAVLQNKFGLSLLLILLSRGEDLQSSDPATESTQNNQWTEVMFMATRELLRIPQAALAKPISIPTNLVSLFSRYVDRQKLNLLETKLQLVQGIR
How it was run: as §1

AAUAAA
Kd [1]: 173 nM | Kd [2]: 126 nM | Kd [3]: 766 nM

CUGUCCU
Kd [4]: 116 nM | Kd [5]: 100 nM

UAUUUAU
Kd [6]: 2700 nM | Kd [7]: 258 nM
